Measurements as given in the nanobody polyreactivity screen of Harvey et al. (2022).

assay: yeast display, Sf9 membrane polyspecificity reagent, FACS + sequencing; frameworks hold sequencing errors
In short: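 After 36–48 hours of galactose induction, yeast (Saccharomyces cerevisiae BJ5465) displaying a synthetic nanobody library were stained at 4 °C for 1 hour with 10% biotinylated, detergent-solubilized Sf9 membrane reagent. Streptavidin microbeads enriched the stained cells before FACS sorting into low and high (top ~1%) gates on anti-HA and streptavidin fluorescence. Each clone's polyreactivity label reflects its gate of origin.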

Row | Sequence | polyreactivity (PSR sort gate)
1 | QVQFVESGGGLVQAGGSLRLSCAASGSTFPYYAMGWYRQAPGKERELVAGINWRGSSTYYADSVKGRFTISRDNAKNTVYLQMNSLKPEDTAVYYCAARDYSYPQWYYYWGQGTQVTVSS | high polyreactivity
2 | QVQFVESGGGLVQARCSLRLSCAASGFIFGVYAMGWYRQAPGKERELVAAINSGGGSTYYADSVKGRFTISRDNAKNTVYLQMNSLKPEDTAVYYCAVRYKSWYGFNYWGQGTQVTVSS | high polyreactivity
3 | QVQHAESGGGLVQAGGSLRLSCAASGSTSAKNVMGWYRQAPGKVRELVAAISRSGGRTYYADSVKGRFTISRDNAKNTVYLQMNSLNPEDTAVYYCAARSATNHADDYYYWGQGTQVTVSS | high polyreactivity
4 | QVQHEESGGGLVQAGGSLRLSCAASGFTFGTNAMGWSRQAPGKERELVAAISTRGGSTYYADSVKGRFTISRDNAKNTVYLQMNSLKPEDTAVYYCAAYWGRTRYYGYDYYYWGQGTQVTVSS | high polyreactivity
5 | QVQHVDSGGGLVQAGGSLRLSCAASGIYVVYAMGWYRQAPGKERELVAAISSGVSTTYADSVKGRFTISRDNAKNTVYLQMNSLKPEDTAVYYCNTLWGHHYIVPYRTREFYYWGQGTQVTVSS | low polyreactivity
6 | QVQHVDSGGGLVQAGGSLRLSCAASGSTFFTYAMGWYRQEPGKERELVAAISQSSVRTHYADSVKGRFTISRDNAKNTVYLQMNSLKPEDTAVYYCAARVYGRQYPGAPYYYWGQGTQVTVSS | high polyreactivity
7 | QVQHVDSGGGLVQAGGSLRLSFAASGFRFGINAMGWYRPAPGKERELVAAISKRTGSTYYADSVKGRFTSSRDNAKNTVYLQMNSLKPEDTAVYYCNKRVFPGYRLGGFWGQGTQVTVSS | high polyreactivity
8 | QVQHVEKGGALVQAGGSLRLSCAASGFTVDWYAMGWYIQAPGKERELVAAITTSGGTKYYADSVKGRFTISRDNAKNTVYLLMNCLNPEDTAVYYCAAEGTWSRNYDYWGQGTQVTVSS | low polyreactivity
9 | QVQHVESAGGLVQAGGSLRLICAASGSIFFHYGMGWYRQAPGKERELVADIRSGGSTYYADSVKGRFTSSRDNAKNTVYLQMNSLKPDDSAVYYCAAVLALFGVTHVDYWGQGTQVSVSS | low polyreactivity
10 | QVQHVESAGGLVQAGGSLRLSCSASGSIFYFYAMGWSRQAPGKERELVATITSSGSTNYADSVKGRFTISRDNAKNTVYLQMNSLKPEDTAVYYCNVDVISLKPYVSSYFAIKYDYWGQGTQVTVSS | low polyreactivity
11 | QVQHVESAGGLVQAGGSLSLSCAASGSIFNLYAMGWYRQAPGKERELVAAIRWDGGSTYNADSVKGRFTISRDTAKNTVYLQMNSLKPEDTAVYYCAAETVYFRLLILDYWGQGTQVTVSS | high polyreactivity
12 | QVQHVESGGALVQAGGSLRLSCAASARTFPGYTMGWYRQAPGKETELVAAITRVGTTYYADSVKGRFTISRDNAKNTVYLQMNSLKPEDTAVYYCAAVISQGFIRYYYWGQGTQVTVSS | high polyreactivity
13 | QVQHVESGGCLVQAGGSLRLSCASSGSIFDRNAMGWYRQAPGKERELVAAISSRGGSTYYADSVKGRFTISRDNAKNTVYLQMNSLKPEDTAVYYSAKRRDLYGGYRPYYYWGQGTQVTVSS | high polyreactivity
14 | QVQHVESGGGIDQAGGSLRLSCAASGSTSVQYAMGWYRQATGKERELVAAISLSVGSTYYADSVKGRFTISRDNAKITVYLQMNCLKPEDTAVYYCASGYPPEDPEDYWGQGTQVTVSS | low polyreactivity
15 | QVQHVESGGGIVHAGGSLRLSCAASGSIFTRYTMGWDRMATGKERELVAVISDSSGRTYYADSVKGRFTISRDNAKNTFYLQLNSLKPADTAVYYCAAEYSDIYEYWGQGTQVTVSS | low polyreactivity
16 | QVQHVESGGGIVQAGGSLRLSCAASGIIFTSNAMGWYRQAPGKERELVAAINWSGARTYYADSVKGRFTISRDNAKNTVYLQMNSLKPEDTAVYYCNVVTRAATYPDYSYDYWGQGTQVTVSS | high polyreactivity
17 | QVQHVESGGGIVQAGGSLRLSCAASGRTYAINAMGSYRQAPGKEMELLASITTRDSSTYYADSVKGRFTISRDNAKNTVYLQMKSLIPDDTAVYYCAKVKLVTYLYRLFVYGSYYWGLGTQVTVSS | low polyreactivity
18 | QVQHVESGGGLLQAGGSLRLSCAASGITFWPYAMGWYRQAPGKERELVAAIRASVGRTYYADSVKGRFTISREYAKNTVYLQMNSLIPVDTAVYYCNAYGRYGKFRVEYDYWGQGTQVTVSS | low polyreactivity
19 | QVQHVESGGGLVHAGGRLRLRCAASGSTFVTNVMGWYSQEPGKEMELVAAISYSGGNTYYEDSEKGRFTISRDNAQNSVYLQMNSLKQEDTAVYYCAAAYKPFKKMGYWGQGTQVTVSS | high polyreactivity
20 | QVQHVESGGGLVQAAGSLRLSCAASGRIFYRNAMGWSRQAPGKERELVAAISKSGGSTYYSDSVKGRFTISRDNAKNTVYLQMNSLKPEDTAVYYCAAGTRLSDGYYWGQGTQVTVSS | high polyreactivity
21 | QVQHVESGGGLVQAAGSLRLSCAASGTTLSSYAMGWSRQAPGKVRELVAAINSSGGRTYYADSVKGRFTISRDNAKNTVYLQMNSLKPDDTAVYYCAATRGRYREYEDYWGQGTQVTVSS | high polyreactivity
22 | QVQHVESGGGLVQAGGGLRLSCAASGRIFRQNTMGWYRHAAGKEWELVASISLSAGSTFYADSVKGRFTISRDNAKNTVYLQMNSLKPEDTAVYYCAAEKPVHYVRGVHYDYWGQGTQVTVSS | low polyreactivity

Row | Sequence | polyreactivity (PSR sort gate)
23 | QVQHVESGGGLVQAGGILRFSSPASGGTVNINAMGWYIQAPGKERELFADISYSDGTTDYADSVKGRFTISRDNAKNTVYLQMNSLKPEDTAVYYCAAYYYYYSGFGQRSYSWGQGTNVTVSS | low polyreactivity
24 | QVQHVESGGGLVQAGGILRLICDASGGIFAANAMGWYRPAPGQERELVAAITSVGSTYADSVKGRFTISRDNAKNTVYLQMNSLKPEDTAVYYCAADTESVIVWYEDDYWGQGTQVTVSS | low polyreactivity
25 | QVQHVESGGGLVQAGGRLRLTCPASGSTVGYYAMGWYRQAPGKEREFVATITFGGSTHYADSVKGRFTISRDNAKYTVYLQMNSLKPEDTAFYYCAKRYYTNRHSRAFGYWGQGTQVTVSS | high polyreactivity
26 | QVQHVESGGGLVQAGGSLLLSCAASGFIFKSNAMGWYRQAPGKERELVAAITSSGGRTYYADSVKGRFTISRDNAKNTVYLQMNSLKPEDTAVYYCAADIALGRYYYWGQGTQVTVSS | high polyreactivity
27 | QVQHVESGGGLVQAGGSLLLSCAASGSTFARYAMGWYRQPPGKERELVAAISRSGSNTYYADSVKGRFTISRDNAKNTVYLQMNSLKPEDTAVYYCNRTHRQSFSKLDYWGQGTQVTVSS | high polyreactivity
28 | QVQHVESGGGLVQAGGSLRISCAPSGRTFFPNAMGCYRQAPGKEREFVAAITKTDDSTYYADSVKGRFTISRDNAKNTVYLPMNSLKPEDTAVYYCNAGDTQIRFYYWGQGTQETVSS | low polyreactivity
29 | QVQHVESGGGLVQAGGSLRLICAASGITFHYYAMGWYRQAPGKDRELVAAISSGGRTNYADSVKGRFTISRDNAKNTVYLQMNCLKPEDTAVYYCAGVYFGGYTATVYYWGQGTQVTVSS | high polyreactivity
30 | QVQHVESGGGLVQAGGSLRLICAASGRIFTRYAMGWYRQAPGKERELVAAISASGGSTHYADSVKGRFTISRDNAKNTVYLQMNSLKPEDTAVYYCADAYVSRNSGFGYWGQGTQVTVSS | low polyreactivity
31 | QVQHVESGGGLVQAGGSLRLSCAACGRTFTPYAMGWYLQEPGKDREFVAAIDTSGGSTYADSVNGRFTISRDNAKYTVYLQKNSLKPEDTAVYYCGTRGFYSWDYWYLWEYDYWGQGTQVTVSS | low polyreactivity
32 | QVQHVESGGGLVQAGGSLRLSCAASAFTFRFYAMGWYRQAPAKEMELVAAISWSGTSTYYADSVKGRFTLSRDNAKNTVYLQMNSLIQDDTAVYYCATQYRRRQRKYDYWGQGTQVTVSS | high polyreactivity
33 | QVQHVESGGGLVQAGGSLRLSCAASARTFHGYPLGVYRQAAGKETELVARINWSDGRTYYADSVKGRFTMSRDNAKNTVYFQMNSLKPEDTAFYYCAAEKTVSYAPAWYYYWGQGTQVTVSS | low polyreactivity
34 | QVQHVESGGGLVQAGGSLRLSCAASASTFAWYPMGWYRQAPGKERELVAAITRDGSTYYADSVKGRFTISRDNAKNTVYLQMNSLKPEDTAVYYCAADLSYWRGGHSRNYWGQGTQVTVSS | low polyreactivity
35 | QVQHVESGGGLVQAGGSLRLSCAASGAIFWGYAMGWYRQAPGKERELVATISWTGGSTYYADSVKGRFTISRDNAKNTVYLQMNSLKPEDTAVYYCAKVIIHYYYLVNLVDVDYWGQGTQVTVSS | low polyreactivity
36 | QVQHVESGGGLVQAGGSLRLSCAASGFIFSSYAIGWYRQAPGKEREFVASIRRRGGSTYYAYSVKGRFTISRDNAKNTVILQMNRLIPEDTAVYYCAREVYRHFAPVGYDYWGQGTQVTVSS | high polyreactivity
37 | QVQHVESGGGLVQAGGSLRLSCAASGFIFSTNAMGRYRQAPGKERELVATIRSGGSTNYADSVKGRFTISRDNAKYTVYLQMNSLKPEDTAVYYCNVDDTSWTTSGGRFGQVEYDYWGQGTQVTVSS | low polyreactivity
38 | QVQHVESGGGLVQAGGSLRLSCAASGFIFWDYAMGWYRQAPGKERELVAAISDSGGDTYYADSVKGRFTISRDNAKNTVYLQMNSLIPEDTAVYYCAAETYCGGYPVTYDYWGQGTQVTVSS | low polyreactivity
39 | QVQHVESGGGLVQAGGSLRLSCAASGFIFYRYTMVWYRQAHGKERELVAAISQSGGNTYYADSVKGRFTISRDNAKNTVYLLMNSLKPEDTAVYYCNAVYYYYAGNYWGQGTQVTVSS | high polyreactivity
40 | QVQHVESGGGLVQAGGSLRLSCAASGFMFYSYAMGWYRQPPGKEREFVAAITEDGDSSYYADSVKGRFTISRDNAKKTVYLQMNSLKPEDTAVYYCNTDLTFNGTSGDYDYWGQGTQVTVSS | low polyreactivity
41 | QVQHVESGGGLVQAGGSLRLSCAASGFTFAIYGKGWYRQAPGKERELVAAINWSGGRTYYADSVKGRFTISRDNAKNTVYVQMQSLKPDDTAVYYCAARYVSRWYDYEFWGQGTQVTVSS | high polyreactivity
42 | QVQHVESGGGLVQAGGSLRLSCAASGFTFAWNAMGWYRQAPGKERELVAAITWGDNSTYYADSVKGRFTISRDNAKNTVYLQMNSLKPEDTAVYYCAARVTHWYYLFGYDYWGQATQVTVSS | low polyreactivity
43 | QVQHVESGGGLVQAGGSLRLSCAASGFTFFGDYAMGWYRQAPGKERELVAGISVSGGSTYYADSVKGRFTISRDNAKNSVYLQMNSLKPEDTGVYYCAARYSLKGGRYVYWGQGTQVTVSS | high polyreactivity
